Holding throughout (type): physicochemical
Series [1] is described as follows: Retention of peptides P1-1 to P1-5 on a polypropylene sheet after successive washes. Particulars: for Average fluorescence, control array / Corrected signal, control array: unwashed control array. On the procedure: Further experiments were undertaken to investigate the retention of peptides P1-1 to, P1-5 and P2-1 to P2-2, shown in Table 3, on a polypropylene surface.
The polypropylene sheet was wiped with 50% (v/v) aqueous acetonitrile prior to use.
8× replicate 20 nl volumes of 1 μM peptides P1-1 to P1-5 and P2-1 to P2-2 and TAMRA in dimethyl sulphoxide (DMSO) were dispensed at 1 mm spacing to a 3″×1″×1 mm polypropylene sheet using the Piezorray system (PerkinElmer LAS). 500 drops were pre-dispensed using the ‘side shoot’ option and the tuning was set to 72V for 30 μs.
The slide was imaged at 10 μm resolution on a Typhoon Trio Plus variable mode imager (Amersham Biosciences) with the green (532 nm) laser and the 580 BP 30 filter at a PMT voltage of 600 V and at normal sensitivity. The scan height was set at the platen and the samples were pressed during scanning. The fluorescence image was analysed using ImageQuant TL v2003.03 (Amersham Biosciences).
The lower half of the slide (containing the test array) was then washed in 100 ml of 1 M NaCl containing 10 mM tris-HCl (pH 8.0) for one minute and were re-scanned as described above.
The same half of the slide was then washed for a second time in 100 ml of 1 M NaCl containing 10 mM tris-HCl (pH 8.0) for 30 minutes and re-scanned as described above.
The same half of the slide was then washed for a third time in 100 ml of water for 30 minutes and re-scanned as described above.

Series [2] is described as follows: Retention of peptides in flat-bottomed polypropylene wells. The settings on record: flat-bottom wells; 500V scan; unwashed. On the procedure:
(§1) The retention of peptides 2DOS-1 to 2DOS-16 (see above) on polypropylene wells of different geometries was investigated:
(§2) 10 mM tris-HCl (pH 8.0) in 50% (v/v) aqueous acetonitrile was used as the solvent for the peptides and for TAMRA.
(§3) 1 μl aliquots of 10 μM peptides 2DOS-1 to 2DOS-16 and 10 μM TAMRA were pipetted into the wells of a Costar V-bottomed polypropylene microtitre plate and a Greiner flat-bottomed polypropylene microtitre plate according to the following scheme as shown in FIG. 22:
(§4) The peptide samples were allowed to evaporate to dryness in the dark.
(§5) The peptide samples in the top two rows of the microtitre plates were then incubated for 15′ minutes at room temperature in 250 μl of 1 M NaCl in 10 mM tris-HCl (pH 8.0).
(§6) After incubation, the wash buffer was pipetted up and down eight times in the well before removing the supernatant.
(§7) The washed and untreated peptide samples were then resuspended in 50 μl of 10 mM tris-HCl (pH 8.0) in 50% (v/v) aqueous acetonitrile.
(§8) The microtitre plates were imaged at 200 μm resolution on a Typhoon Trio Plus variable mode imager (Amersham Biosciences) with the green (532 nm) laser and the 580 BP 30 filter at the PMT voltages indicated below and at normal sensitivity. The scan height was set at the platen and the sample was pressed during, scanning.
(§9) The fluorescence images were analysed using ImageQuant TL v2003.03 (Amersham Biosciences).

Series [3] can be described thus: Retention of peptides in V-bottomed polypropylene wells. Particulars: V-bottom wells, 500V scan. As for the experimental part: as §1, §2, §3, §4, §5, §6, §7, §8, §9
Series [4] is described as follows: Retention of peptides on Greiner polystyrene V-bottom wells. Particulars: 400V scan. As for the experimental part: (§10) The retention of peptides 2DOS-1 to 2DOS-16 (see above) on polypropylene and polystyrene surfaces was compared:
(§11) 5 mM tris-HCl (pH 8.0) in 75% (v/v) aqueous acetonitrile was used as the solvent for the peptides and for TAMRA.
(§12) 20 μl aliquots of 5 μM peptides 2DOS-1 to 2DOS-16 and 5 μM TAMRA were pipetted into the wells of a Costar V-bottomed polypropylene microtitre plate, a Greiner V-bottomed polypropylene microtitre plate, and a Greiner V-bottomed polystyrene microtitre plate according to the scheme shown in FIG. 26:
as §4
(§13) The peptide samples in the top two rows of the microtitre plates were then incubated for 15 minutes at room temperature in 250 μl of 1 M NaCl in 10 mM tris-HCl (pH 8.0).
as §6, §7
(§14) The microtitre plates were imaged at 200 μm resolution on a Typhoon Trio Plus variable mode imager (Amersham Biosciences) with the green (532 nm) laser and the 580 BP 30 filter at the PMT voltages indicated below and at normal sensitivity. The scan height was set at +3 mm and the sample was pressed during scanning.
as §9

The nature of series [5]: Retention of peptides on Costar polypropylene V-bottom wells. The settings on record: 400V scan. As for the experimental part: as §10, §11, §12, §4, §13, §6, §7, §14, §9
Series [6] in a line: Retention of peptides on Greiner polypropylene V-bottom wells. Particulars: 400V scan. As for the experimental part:
as §10, §11, §12, §4, §13, §6, §7, §14, §9

[7] abbreviates: after first wash scan, slide background subtracted.
[8] abbreviates: after first wash: 1 M NaCl/10 mM tris-HCl (pH 8.0), one minute.
[9] abbreviates: after first wash: 1 M NaCl/10 mM tris-HCl (pH 8.0), one minute, background subtracted.
[10] abbreviates: after second wash scan, background subtracted.
Setting [11] is: after second wash: 1 M NaCl/10 mM tris-HCl (pH 8.0), 30 minutes.
Setting [12] is: after second wash: 1 M NaCl/10 mM tris-HCl (pH 8.0), 30 minutes, background subtracted.
The mark [13] stands for this setting: after third wash scan, background subtracted.
[14] abbreviates: after third wash: water, 30 minutes.
[15] abbreviates: after third wash: water, 30 minutes, background subtracted.
The mark [16] stands for this setting: washed 15 minutes in 1 M NaCl in 10 mM tris-HCl (pH 8.0).

Values joined by “and” are separate entries in the source; they are usually repeats but may differ in a detail not shown here. Equal values may be shown once. Ends that are not written are not given here.

“TAMRA-F-G-F-G-F-S-F-A-F-D-F-G-F ({TAMRA}-FGFGFSFAFDFGF) [Peptide P1-2]”: the “Average fluorescence, control array” value is 200,280,129 in series [1] (after first wash scan), 196,080,891 in series [1] (after second wash scan) and 185,727,868 in series [1] (after third wash scan). In addition, the “Corrected signal, control array” value in series [1] (setting [7]) is reported as 53,588,457; in series [1] (setting [10]) it was 58,801,042; in series [1] (setting [13]) it was 51,820,628. For the same substance, the “Average fluorescence, test array” value is 170,078,218 in series [1] (setting [8]), 135,695,639 in series [1] (setting [11]) and 126,193,156 in series [1] (setting [14]). For the same substance, the results for the “Corrected signal, test array” value in series [1] (setting [9]), in series [1] (setting [12]) and in series [1] (setting [15]) were 15,580,260, 3,248,336 and 1,895,931, respectively.
On to “TAMRA-F-G-F-G-F-G-F-G-F-G-F-S-F-A-F-D-F-G-F ({TAMRA}-FGFGFGFGFGFSFAFDFGF) [Peptide P1-5]”, for which the “Average fluorescence, control array” value in series [1] (after first wash scan) is listed as 199,347,483; in series [1] (after second wash scan) it was 190,847,825; in series [1] (after third wash scan), 183,492,293. For the same substance, the “Corrected signal, control array” value in series [1] (setting [7]) is given as 52,655,810; in series [1] (setting [10]), 53,567,975; in series [1] (setting [13]), 49,585,053. The “Average fluorescence, test array” value is 201,991,732 in series [1] (setting [8]), 167,865,473 in series [1] (setting [11]) and 147,812,043 in series [1] (setting [14]). In addition, the “Corrected signal, test array” value in series [1] (setting [9]) is 47,493,774; in series [1] (setting [12]), 35,418,169; in series [1] (setting [15]), 23,514,817. The “Retention on polypropylene surface (in words)” value in series [1] (compared among P1-1 to P1-5, chain length of 19 amino acids) is recorded as “highest retention”.
For TAMRA [reference compound], the Untreated fluorescence in series [2] was 18,396,859 and 20,662,891 and 20,649,165; in series [3] (unwashed), 12,610,993 and 15,392,751 and 17,471,866; in series [4] (unwashed), 1,051,154; in series [5] (unwashed), 11,786,211; in series [6] (unwashed) it was 6,199,206. The Percent retention was 5% and 4% and 6% in series [3]; 1% in series [4]; 3% in series [5]; 1% in series [6]. Also, the Retained fluorescence was 640,684 and 686,863 and 998,320 in series [3] (setting [16]); 10,004 in series [4] (setting [16]); 386,629 in series [5] (setting [16]); 64,916 in series [6] (setting [16]).
On to “TAMRA-F-G-F-G-F-G-F-S-F-A-F-D-F-G-F ({TAMRA}-FGFGFGFSFAFDFGF) [Peptide P1-3]”, for which the “Average fluorescence, control array” value in series [1] (after first wash scan) is given as 192,743,469; in series [1] (after second wash scan), 187,310,655; in series [1] (after third wash scan) it was 184,219,147. Besides, the “Corrected signal, control array” value in series [1] (setting [7]) is 46,051,796; in series [1] (setting [10]), 50,030,806; in series [1] (setting [13]), 50,311,907. Further, the “Average fluorescence, test array” value in series [1] (setting [8]) is given as 171,197,973; in series [1] (setting [11]), 148,725,456; in series [1] (setting [14]), 125,717,642. The “Corrected signal, test array” value in series [1] (setting [9]) is given as 16,700,014; in series [1] (setting [12]) it was 16,278,152; in series [1] (setting [15]), 1,420,417.
As for “TAMRA-F-G-F-G-F-G-F-G-F-S-F-A-F-D-F-G-F ({TAMRA}-FGFGFGFGFSFAFDFGF) [Peptide P1-4]”, the “Average fluorescence, control array” value in series [1] (after first wash scan) was 187,287,630; in series [1] (after second wash scan), 179,942,418; in series [1] (after third wash scan), 176,102,487. Besides, the “Corrected signal, control array” value in series [1] (setting [7]) was 40,595,958; in series [1] (setting [10]), 42,662,569; in series [1] (setting [13]), 42,195,247. Moreover, the “Average fluorescence, test array” value in series [1] (setting [8]) is 189,823,310; in series [1] (setting [11]), 159,100,527; in series [1] (setting [14]) it was 135,681,173. Further, the “Corrected signal, test array” value in series [1] (setting [9]) is listed as 35,325,352; in series [1] (setting [12]), 26,653,223; in series [1] (setting [15]), 11,383,947.
Consider “TAMRA-F-G-F-S-F-A-F-D-F-G-F ({TAMRA}-FGFSFAFDFGF) [Peptide P1-1]”, for which the “Average fluorescence, control array” value was 244,263,013 in series [1] (after first wash scan), 225,863,933 in series [1] (after second wash scan) and 218,342,010 in series [1] (after third wash scan). For the same substance, the “Corrected signal, control array” value in series [1] (setting [7]) is listed as 97,571,341; in series [1] (setting [10]), 88,584,083; in series [1] (setting [13]) it was 84,434,769. Besides, the “Average fluorescence, test array” value is given as 157,624,537 in series [1] (setting [8]), 127,216,792 in series [1] (setting [11]) and 124,941,941 in series [1] (setting [14]). Besides, the “Corrected signal, test array” value in series [1] (setting [9]) was 3,126,578; in series [1] (setting [12]), −5,230,512; in series [1] (setting [15]), 644,716.
